The supplement of paper PMC6757056
± gives the standard deviation of the averaged measurements.

B1: library; a variant is named by its letters at N, in order (parent)
chain: GCUGUCACCGGUGCUUGGUACGUUAUAUUCAGCCGGUCUGAUGAGUCUNNNNNNAGACGAAACAGC

Key:
(6R,S)-folinic acid [1] = variants of: B1; experiment: FACS-Seq fitted mean relative fluorescence mCherry/BFP without ligand (log10 relative fluorescence); HEK293T overexpressing SLC46A1; higher = higher reporter protein expression; conditions: without (6R,S)-folinic acid; ligand present: no
Procedure: (§1)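 Hammerhead (sTRSV) ribozyme switch libraries with a ligand aptamer grafted on stem I and a randomized N4-6 loop II, cloned into the 3' UTR of mCherry and transiently transfected into HEK293T cells; RNA-Seq 72 h post transfection with ligand added 1 h before transfection; RNA read count / plasmid DNA read count normalized to the non-cleaving sTRSVctl (x100), log10; sequences with >100 DNA reads. FACS-Seq: lentiviral library sorted into 6 bins after 48 h ligand, log-normal fit mean of mCherry/BFP scaled to controls. Printed sequences are partial switch sequences.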

(6R,S)-folinic acid [2] = variants of: B1; experiment: normalized RNA/DNA level without ligand (relative to sTRSVctl = 100) (log10 (% of sTRSVctl)); HEK293T overexpressing SLC46A1; higher = less ribozyme self-cleavage, higher mRNA level; conditions: without (6R,S)-folinic acid; ligand present: no
Procedure: as §1

(6R,S)-folinic acid [3] = variants of: B1; experiment: FACS-Seq fitted mean relative fluorescence mCherry/BFP with ligand (log10 relative fluorescence); HEK293T overexpressing SLC46A1; ligand concentration (+) FACS-Seq: 6 mM; higher = higher reporter protein expression; conditions: with (6R,S)-folinic acid; ligand present: yes
Procedure: as §1

(6R,S)-folinic acid [4] = variants of: B1; experiment: normalized RNA/DNA level with ligand (relative to sTRSVctl = 100) (log10 (% of sTRSVctl)); HEK293T overexpressing SLC46A1; ligand concentration (+) RNA-Seq: 6 mM; higher = less ribozyme self-cleavage, higher mRNA level; conditions: with (6R,S)-folinic acid; ligand present: yes
Procedure: as §1

Variant | FACS-Seq fitted mean (log10) ((6R,S)-folinic acid [1]) | normalized RNA/DNA level without ligand (log10) ((6R,S)-folinic acid [2]) | FACS-Seq fitted mean (log10) ((6R,S)-folinic acid [3]) | normalized RNA/DNA level with ligand (log10) ((6R,S)-folinic acid [4])
GCUGUCACCGGUGCUUGGUACGUUAUAUUCAGCCGGUCUGAUGAGUCUAAGGUCAGACGAAACAGC [AAGGUC] | 0.209 ± 0.03 | 2.03 ± 0.013 | 0.178 ± 0.099 | 2 ± 0.027
GCUGUCACCGGUGCUUGGUACGUUAUAUUCAGCCGGUCUGAUGAGUCUAAGGUAAGACGAAACAGC [AAGGUA] | 0.34 ± 0.014 | 1.74 ± 0.024 | 0.228 ± 0.14 | 1.83 ± 0.025
GCUGUCACCGGUGCUUGGUACGUUAUAUUCAGCCGGUCUGAUGAGUCUAAGGUGAGACGAAACAGC [AAGGUG] | 0.462 ± 0.049 | 1.827 ± 0.011 | 0.597 ± 0.51 | 1.98 ± 0.04
GCUGUCACCGGUGCUUGGUACGUUAUAUUCAGCCGGUCUGAUGAGUCUAAGGGAAGACGAAACAGC [AAGGGA] | 0.125 ± 0.041 | 1.949 ± 0.0036 | 0.0354 ± 0.14 | 2.03 ± 0.03
GCUGUCACCGGUGCUUGGUACGUUAUAUUCAGCCGGUCUGAUGAGUCUAAGGGUAGACGAAACAGC [AAGGGU] | -0.0258 ± 0.095 | 1.952 ± 0.0044 | -0.308 ± 0.14 | 2.02 ± 0.032
GCUGUCACCGGUGCUUGGUACGUUAUAUUCAGCCGGUCUGAUGAGUCUCAGGCUAGACGAAACAGC [CAGGCU] | 0.511 ± 0.14 | 2.055 ± 0.0024 | 0.544 ± 0.066 | 2.01 ± 0.036
GCUGUCACCGGUGCUUGGUACGUUAUAUUCAGCCGGUCUGAUGAGUCUGAGGGAAGACGAAACAGC [GAGGGA] | 0.161 ± 0.042 | 1.969 ± 0.017 | 0.0592 ± 0.019 | 2.04 ± 0.028
GCUGUCACCGGUGCUUGGUACGUUAUAUUCAGCCGGUCUGAUGAGUCUGAGGGUAGACGAAACAGC [GAGGGU] | 0.338 ± 0.027 | 2.001 ± 0.016 | 0.556 ± 0.037 | 2.04 ± 0.041
GCUGUCACCGGUGCUUGGUACGUUAUAUUCAGCCGGUCUGAUGAGUCUUAGGGGAGACGAAACAGC [UAGGGG] | 0.0613 ± 0.073 | 1.648 ± 0.0041 | 0.172 ± 0.14 | 1.97 ± 0.04
GCUGUCACCGGUGCUUGGUACGUUAUAUUCAGCCGGUCUGAUGAGUCUUAGGGAAGACGAAACAGC [UAGGGA] | 0.295 ± 0.13 | 1.8512 ± 0.0012 | 0.501 ± 0.29 | 2 ± 0.03
GCUGUCACCGGUGCUUGGUACGUUAUAUUCAGCCGGUCUGAUGAGUCUUAGGGUAGACGAAACAGC [UAGGGU] | 0.607 ± 0.2 | 1.885 ± 0.015 | 0.604 ± 0.026 | 1.98 ± 0.049
GCUGUCACCGGUGCUUGGUACGUUAUAUUCAGCCGGUCUGAUGAGUCUUAGGUGAGACGAAACAGC [UAGGUG] | 0.228 ± 0.037 | 1.68 ± 0.017 | 0.559 ± 0.21 | 1.96 ± 0.033
GCUGUCACCGGUGCUUGGUACGUUAUAUUCAGCCGGUCUGAUGAGUCUUAGGUAAGACGAAACAGC [UAGGUA] | 0.246 ± 0.04 | 1.878 ± 0.0067 | 0.0784 ± 0.099 | 1.98 ± 0.031
GCUGUCACCGGUGCUUGGUACGUUAUAUUCAGCCGGUCUGAUGAGUCUCAGGUGAGACGAAACAGC [CAGGUG] | 0.231 ± 0.12 | 1.96 ± 0.025 | 0.385 ± 0.089 | 1.992 ± 0.016
GCUGUCACCGGUGCUUGGUACGUUAUAUUCAGCCGGUCUGAUGAGUCUCAGGUAAGACGAAACAGC [CAGGUA] | 0.0884 ± 0.016 | 1.667 ± 0.0023 | 0.0948 ± 0.22 | 1.806 ± 0.013
GCUGUCACCGGUGCUUGGUACGUUAUAUUCAGCCGGUCUGAUGAGUCUAAGGCCAGACGAAACAGC [AAGGCC] | 0.18 ± 0.073 | 2.059 ± 0.012 | 0.288 ± 0.18 | 2.04 ± 0.081
GCUGUCACCGGUGCUUGGUACGUUAUAUUCAGCCGGUCUGAUGAGUCUGAGGCAAGACGAAACAGC [GAGGCA] | 0.286 ± 0.031 | 2.017 ± 0.0044 | 0.296 ± 0.25 | 2.05 ± 0.026
GCUGUCACCGGUGCUUGGUACGUUAUAUUCAGCCGGUCUGAUGAGUCUUAGGAUAGACGAAACAGC [UAGGAU] | 0.37 ± 0.051 | 1.9235 ± 0.00039 | 0.358 ± 0.23 | 2 ± 0.052
GCUGUCACCGGUGCUUGGUACGUUAUAUUCAGCCGGUCUGAUGAGUCUGAGGUAAGACGAAACAGC [GAGGUA] | 0.345 ± 0.029 | 1.844 ± 0.015 | 0.341 ± 0.17 | 1.92 ± 0.033
GCUGUCACCGGUGCUUGGUACGUUAUAUUCAGCCGGUCUGAUGAGUCUGAGGUGAGACGAAACAGC [GAGGUG] | 0.324 ± 0.045 | 1.967 ± 0.0026 | 0.505 ± 0.25 | 2.04 ± 0.043
GCUGUCACCGGUGCUUGGUACGUUAUAUUCAGCCGGUCUGAUGAGUCUGAGGUUAGACGAAACAGC [GAGGUU] | -0.16 ± 0.053 | 1.991 ± 0.0089 | -0.382 ± 0.15 | 2 ± 0.027
